Assays:
[1] = molecular target: T1, plasma-membranous human MSLN on cell lines (H226, HPAC, H292, OVCAR-3, MeT-5A) (human, UniProt Q13421 296-598); assay: cell-based or functional assay
[2] = molecular target: soluble mesothelin (sMSLN); assay: cell-based or functional assay
[3] = molecular target: T1, plasma-membranous human MSLN on cell …; assay: cell-based or functional assay; remark: listed apart in the source
[4] = molecular target: T1, plasma-membranous human MSLN on cell …; assay: cell-based or functional assay; remark: listed apart in the source
[5] = molecular target: T1, plasma-membranous human MSLN on cell …; assay: cell-based or functional assay; remark: listed apart in the source
[6] = molecular target: T1, plasma-membranous human MSLN on cell …; assay: cell-based or functional assay; remark: listed apart in the source
[7] = molecular target: T1, plasma-membranous human MSLN on cell …; assay: cell-based or functional assay; remark: listed apart in the source
[8] = molecular target: T1, plasma-membranous human MSLN on cell …; assay: cell-based or functional assay; remark: listed apart in the source
[9] = molecular target: soluble mesothelin (sMSLN); assay: cell-based or functional assay; remark: listed apart in the source
[10] = molecular target: T2, human recombinant CD3ε protein (Sino Biological) (human, UniProt P07766 23-126); assay: SPR, CD3ε amine-coupled to CM5, antibody injected
T2 construct: Bought protein; also called recombinant human CD3ε; human CD3ε

[11] = molecular target: T1, plasma-membranous human MSLN on cell …; assay: flow cytometry on H226 cells, protein L-PE, 4PL fit
[12] = molecular target: T1, plasma-membranous human MSLN on cell …; assay: flow cytometry on H292 cells, protein L-PE, 4PL fit
[13] = molecular target: T1, plasma-membranous human MSLN on cell …; assay: flow cytometry on HPAC cells, protein L-PE, 4PL fit
[14] = molecular target: T1, plasma-membranous human MSLN on cell …; assay: flow cytometry on Met-5A cells, protein L-PE, 4PL fit
[15] = molecular target: human serum albumin (hSA, Sigma-Aldrich A3782) (human, UniProt P02768 25-609); assay: SPR, hSA amine-coupled to CM5, antibody injected, pH 5.5, 1:1 Langmuir
[16] = molecular target: T2, human recombinant CD3ε protein (Sino …); assay: SPR, CD3ε amine-coupled to CM5, antibody injected; footnote: ka1 of a two-state fitting model
[17] = molecular target: T2, human recombinant CD3ε protein (Sino …); assay: SPR, CD3ε amine-coupled to CM5, antibody injected; footnote: kd1 of a two-state fitting model
[18] = molecular target: T3, recombinant human MSLN (purchased from Peprotech) (human, UniProt Q13421 296-598, limits assumed); assay: SPR (Biacore T200), human MSLN; which of the two formats (MSLN immobilized / antibody captured) not given
T3 construct: Bought protein; also called recombinant human mesothelin

[19] = molecular target: T1, plasma-membranous human MSLN on cell …; assay: flow cytometry on H226 cells
[20] = molecular target: T1, plasma-membranous human MSLN on cell …; assay: flow cytometry on H292 cells
[21] = molecular target: T1, plasma-membranous human MSLN on cell …; assay: flow cytometry on HPAC cells

B1: PRO1872 (scMATCH3, MSLNlow KD×CD3×hSA) (other)
chain: DVVMTQSPSSLSASVGDRVTITCQASQIISSRSAWYQQKPGQPPKLLIYQASKLASGVPSRFSGSGSGTDFTLTISSLQPEDFATYYCQCTYIDSNFGAFGCGTKLTVLGGGGGSEVQLVESGGGLVQPGGSLRLSCAASGFSLSSYDMSWVRQAPGKGLAWIGASYASGPTYYASWAKGRFTISRDNSKNTVYLQMNSLRAEDTATYFCARGGWTGTSHSNIWGQGTLVTVSSGGGGSGGGGSGGGGSGGGGSDIQMTQSPSSLSASVGDRVTITCQSSQSVFSNNYLAWFQQKPGQSPKRLIYSASTLASGVPSRFSGSGSGTDFTLTISSLQPEDFATYYCLGSYACSSADCYVFGTGTKVTVLGGGGGSEVQLVESGGGLVQPGGSLRLSCAASGFSFSSSYWICWVRQAPGKCLEWVGCVFTGDGTTYYASWAKGRFTISRDNSKNTVYLQMNSLRAEDTATYFCARPVSVYYYGMDLWGQGTLVTVSSGGGGSGGGGSDIQMTQSPSSLSASVGDRVTITCQASESIGNYLAWYQQKPGKAPKLLIYSASTLASGVPSRFSGSGSGTDFTLTISSLQPEDFATYYCQSTDYGDSYIFGTGTKVTVLGGGGGSGGGGSGGGGSGGGGSEVQLVESGGGLVQPGGSLRLSCAASGISVSNDYYMCWVRQAPGKGLEWIGCISTYIGNTHYASWAKGRFTISRDNSKNTVYLQMNSLRAEDTAVYYCAKNAGYPGYRYAIDLWGQGTLVTVSS
notes: also called MSLN.CD3
**Q.** With B1 as the binder, how does the “fold killing potency against PRO2000, H292 cells” value [1] read?
**A.** 7 fold

**Q.** And the “fold killing potency against PRO2000, MeT-5A cells” value [1]?
**A.** 16 fold

**Q.** What about the “fold lower H226 killing potency against PRO2000, no sMSLN” value [1] of the same binder?
**A.** 20 fold

**Q.** And the “fold lower H226 killing potency against PRO2100, no sMSLN” value [1]?
**A.** 10 fold

**Q.** And the “fold reduction of H226 killing potency with 500 ng/ml sMSLN” value [2]?
**A.** 106 fold

**Q.** What about the “shift of H226 killing potency with 100 ng/ml sMSLN” value [2] of the same binder?
**A.** 10 fold

**Q.** And the “EC50 CD8+ T cell activation, H226 cells” value [3]?
**A.** 0.09 pM

**Q.** And the “EC50 CD8+ T cell activation, Met-5A cells” value [3]?
**A.** 10.9 pM

**Q.** What about the “EC50 target cell killing, H226 cells” value [3] of the same binder?
**A.** 5.31 pM

**Q.** And the “EC50 target cell killing, Met-5A cells” value [3]?
**A.** 8.88 pM

**Q.** And the “EC50 CD8+ T cell activation, H292 cells” value [4]?
**A.** 34.1 pM

**Q.** What about the “EC50 CD8+ T cell activation, HPAC cells” value [4] of the same binder?
**A.** 47.2 pM

**Q.** What about the “EC50 target cell killing, H292 cells” value [4] of the same binder?
**A.** 91 pM

**Q.** What about the “EC50 target cell killing, HPAC cells” value [4] of the same binder?
**A.** 30.3 pM

**Q.** And the “EC50 H226 target cell killing, 50 ng/ml soluble mesothelin” value [5]?
**A.** 636 pM

**Q.** What about the “EC50 H226 target cell killing, 500 ng/ml soluble mesothelin” value [5] of the same binder?
**A.** 4650 pM

**Q.** What about the “EC50 H226 target cell killing, no mesothelin” value [5] of the same binder?
**A.** 43.9 pM

**Q.** What about the “EC50 CD8+ T cell activation with H226 cells, 50 ng/ml MSLN” value [6] of the same binder?
**A.** 200 pM

**Q.** And the “EC50 CD8+ T cell activation with H226 cells, 500 ng/ml MSLN” value [6]?
**A.** 1120 pM

**Q.** And the “EC50 CD8+ T cell activation with H226 cells, no MSLN” value [6]?
**A.** 22.9 pM

**Q.** What about the “EC50 target cell killing, H226 cells, 100 ng/ml sMSLN” value [7] of the same binder?
**A.** 130 pM

**Q.** And the “EC50 target cell killing, H226 cells, no sMSLN” value [7]?
**A.** 13.4 pM

**Q.** What about the “max. killing, H226 cells, 100 ng/ml sMSLN” value [7] of the same binder?
**A.** 60.7%

**Q.** What about the “max. killing, H226 cells, no sMSLN” value [7] of the same binder?
**A.** 54%

**Q.** What about the “Fold-diff Window (mean Met-5A EC50 / mean H226 EC50)” value [8] of the same binder?
**A.** 1.1 fold

**Q.** And the “average mean H226 EC50, cell killing (LDH release)” value [8]?
**A.** 120 pM

**Q.** What about the “average mean Met-5A EC50, cell killing (LDH release)” value [8] of the same binder?
**A.** 138 pM

**Q.** What about the “Delta 0-50 ng/mL sMSLN (x-fold change in H226 killing potency)” value [9] of the same binder?
**A.** 8.5 fold

**Q.** What about the “Delta 0-500 ng/mL sMSLN (x-fold change in H226 killing potency)” value [9] of the same binder?
**A.** 78.2 fold

**Q.** What about the Kd [10] of the same binder?
**A.** 12100 pM

**Q.** And the EC50 [11]?
**A.** 1570 pM

**Q.** What about the “max. binding (MFI)” value [11] of the same binder?
**A.** 467000 MFI

**Q.** What about the EC50 [12] of the same binder?
**A.** 709 pM

**Q.** And the “max. binding (MFI)” value [12]?
**A.** 12200 MFI

**Q.** What about the EC50 [13] of the same binder?
**A.** 2160 pM

**Q.** And the “max. binding (MFI)” value [13]?
**A.** 33300 MFI

**Q.** What about the EC50 [14] of the same binder?
**A.** 194 pM

**Q.** What about the “max. binding (MFI)” value [14] of the same binder?
**A.** 11200 MFI

**Q.** And the Kd [15]?
**A.** 175 pM

**Q.** And the koff [15]?
**A.** 6.39e-05 s⁻¹

**Q.** And the kon [15]?
**A.** 366000 M⁻¹ s⁻¹

**Q.** What about the kon [16] of the same binder?
**A.** 293000 M⁻¹ s⁻¹

**Q.** And the koff [17]?
**A.** 0.00508 s⁻¹

**Q.** And the Kd [18]?
**A.** 187 pM

**Q.** What about the koff [18] of the same binder?
**A.** 4.96e-05 s⁻¹

**Q.** What about the kon [18] of the same binder?
**A.** 265000 M⁻¹ s⁻¹

B2: PRO2100 (MATCH4) (other)
chain 1: DIQMTQSPSSLSASVGDRVTITCQASQNIYSNLAWYQQKPGKAPKLLIYDASDLASGVPSRFSGSGSGTDFTLTISSLQPEDFATYYCQQVRSSSDIDNPFGTGTKVTVLGGGGGSGGGGSGGGGSGGGGSQVQLVESGGGLVQPGGSLRLSCAASGFSLSSYAMGWVRQAPGKGLEWIGYISTIANTYYASWAKGRFTISRDNSKNTVYLQMNSLRAEDTAVYYCAREIRSGWVDYGFSIWGQGTLVTVSSGGGGSGGGGSEVQLVESGGGLVQPGGSLRLSCAASGFSLSSYDMSWVRQAPGKGLAWIGASYASGPTYYASWAKGRFTISRDNSKNTVYLQMNSLRAEDTATYFCARGGWTGTSHSNIWGQGTLVTVSSGGGSGGGSEVQLVESGGGLVQPGGSLRLSCAASGFSFSSSYWICWVRQAPGKCLEWVGCVFTGDGTTYYASWAKGRFTISRDNSKNTVYLQMNSLRAEDTATYFCARPVSVYYYGMDLWGQGTLVTVSS
chain 2: DIQMTQSPSSLSASVGDRVTITCQASQNIYSNLAWYQQKPGKAPKLLIYDASDLASGVPSRFSGSGSGTDFTLTISSLQPEDFATYYCQQVRSSSDIDNPFGTGTKVTVLGGGGGSGGGGSGGGGSGGGGSQVQLVESGGGLVQPGGSLRLSCAASGFSLSSYAMGWVRQAPGKGLEWIGYISTIANTYYASWAKGRFTISRDNSKNTVYLQMNSLRAEDTAVYYCAREIRSGWVDYGFSIWGQGTLVTVSSGGGGSGGGGSDVVMTQSPSSLSASVGDRVTITCQASQIISSRSAWYQQKPGQPPKLLIYQASKLASGVPSRFSGSGSGTDFTLTISSLQPEDFATYYCQCTYIDSNFGAFGCGTKLTVLGGGSGGSDIQMTQSPSSLSASVGDRVTITCQSSQSVFSNNYLAWFQQKPGQSPKRLIYSASTLASGVPSRFSGSGSGTDFTLTISSLQPEDFATYYCLGSYACSSADCYVFGTGTKVTVLG
notes: Variant of PRO2000 with anti-MSLN 54-01-G02-sc01 N66A (potential glycosylation site mutated)
**Q.** With B2 as the binder, how does the “shift of H226 killing potency with 100 ng/ml sMSLN” value [2] read?
**A.** 2 fold

**Q.** And the “EC50 target cell killing, H226 cells, 100 ng/ml sMSLN” value [7]?
**A.** 3.56 pM

**Q.** What about the “EC50 target cell killing, H226 cells, no sMSLN” value [7] of the same binder?
**A.** 1.54 pM

**Q.** What about the “max. killing, H226 cells, 100 ng/ml sMSLN” value [7] of the same binder?
**A.** 58.9%

**Q.** What about the “max. killing, H226 cells, no sMSLN” value [7] of the same binder?
**A.** 46.3%

**Q.** And the “fold binding against PRO1872” value [19]?
**A.** 3 fold

**Q.** And the “fold lower binding against PRO1872” value [20]?
**A.** 2 fold

**Q.** What about the “fold binding against PRO1872” value [21] of the same binder?
**A.** 1.5 to 2 fold

**Q.** What about the EC50 [11] of the same binder?
**A.** 524 pM

**Q.** What about the “max. binding (MFI)” value [11] of the same binder?
**A.** 363000 MFI

**Q.** And the EC50 [12]?
**A.** 1300 pM

**Q.** And the “max. binding (MFI)” value [12]?
**A.** 6250 MFI

**Q.** And the EC50 [13]?
**A.** 1010 pM

**Q.** And the “max. binding (MFI)” value [13]?
**A.** 18000 MFI

**Q.** What about the EC50 [14] of the same binder?
**A.** 62.8 pM

**Q.** And the “max. binding (MFI)” value [14]?
**A.** 7480 MFI

Source: US20230203162A1 (NUMAB THERAPEUTICS, published 2023)
